We go through 26 substances from US20250129170A1.

For the test, the target named is human EPOR on cells (293T/EPOR cells; UT-7 cells) (human) (UniProt P19235). Description: cell-based or functional assay.
Chain of human EPOR on cells (293T/EPOR cells; UT-7 cells) (human) (P19235 25-508): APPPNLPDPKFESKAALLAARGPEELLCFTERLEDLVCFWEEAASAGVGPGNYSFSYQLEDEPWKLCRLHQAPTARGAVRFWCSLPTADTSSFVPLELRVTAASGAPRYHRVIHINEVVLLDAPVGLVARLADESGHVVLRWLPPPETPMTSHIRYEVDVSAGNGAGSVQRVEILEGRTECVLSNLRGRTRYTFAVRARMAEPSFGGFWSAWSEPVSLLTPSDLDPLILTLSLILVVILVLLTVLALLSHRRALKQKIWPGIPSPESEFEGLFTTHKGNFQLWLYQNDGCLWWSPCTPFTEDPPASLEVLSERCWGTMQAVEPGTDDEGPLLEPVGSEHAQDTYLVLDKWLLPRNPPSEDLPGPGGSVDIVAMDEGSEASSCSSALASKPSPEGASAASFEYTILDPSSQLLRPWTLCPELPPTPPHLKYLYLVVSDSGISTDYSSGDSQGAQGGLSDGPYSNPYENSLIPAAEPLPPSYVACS
Take “IME049 (EPO-HSA, K20A/K45A/K52A/K140A/K152A/K154A) (from UniProt P01588 28-193)”: the EPO-mediated Stat5 Phosphorylation in 293T/EPOR, Elisa amounted to 15%.
For “IME010 (EPO-Fc, N147K/R103A) (from UniProt P01588 28-193) (Fc fusion)” the value was 5%; for “IME039 (EPO-Fc, L80A) (from UniProt P01588 28-193) (Fc fusion)”, 32%.
For “IME014 (EPO-Fc, E72R) (from UniProt P01588 28-193) (Fc fusion)” the value was 82%.
With “IME009 (EPO-Fc, K45D/R103A) (from UniProt P01588 28-193) (Fc fusion)” the figure was 13%.
“IME047 (EPO-HSA, K140A/K152A) (from UniProt P01588 28-193)” came in with an EPO-mediated Stat5 Phosphorylation in 293T/EPOR, Elisa of 23%.
For “IME008 (EPO-Fc, R103A) (from UniProt P01588 28-193) (Fc fusion)” the value was 30%.
With “IME045 (EPO-HSA, Q65A/E72R/N83A) (from UniProt P01588 28-193)” the figure was 105%; with “IME013 (EPO-Fc, Q65A) (from UniProt P01588 28-193) (Fc fusion)”, 100%.
With “IME044 (EPO-HSA, Q65A/E72R) (from UniProt P01588 28-193)” the figure was 94%; with “IME012 (EPO-Fc, E62R) (from UniProt P01588 28-193) (Fc fusion)”, 4%; with “IME011 (EPO-Fc, R150E/R103A) (from UniProt P01588 28-193) (Fc fusion)”, 5%.
For “IME031 (HSA-HBSP, helix B surface peptide fused to albumin)”, the EPO-mediated Stat5 Phosphorylation in 293T/EPOR, Elisa was 0%.
On to “IME048 (EPO-HSA, K140A/K152A/K154A) (from UniProt P01588 28-193)”, for which the EPO-mediated Stat5 Phosphorylation in 293T/EPOR, Elisa came out at 11%.
With “IME037 (EPO-Fc, Q58A) (from UniProt P01588 28-193) (Fc fusion)” the figure was 71%; with “IME033 (EPO-Fc, E72A) (from UniProt P01588 28-193) (Fc fusion)”, 75%.
Regarding “IME043 (EPO-HSA, R103A) (from UniProt P01588 28-193)”, the EPO-mediated Stat5 Phosphorylation in 293T/EPOR, Elisa is 0%.
For “IME007 (EPO-Fc, R150E) (from UniProt P01588 28-193) (Fc fusion)” the value was 27%; for “IME046 (EPO-HSA, K20A/K45A/K52A) (from UniProt P01588 28-193)”, 90%.
On to “IME038 (EPO-Fc, L69A) (from UniProt P01588 28-193) (Fc fusion)”, for which the EPO-mediated Stat5 Phosphorylation in 293T/EPOR, Elisa stood at 57%.
“IME032 (EPO-Fc, E62A) (from UniProt P01588 28-193) (Fc fusion)” showed an EPO-mediated Stat5 Phosphorylation in 293T/EPOR, Elisa of 2%.
Turning to “IME005 (EPO-Fc, K45D) (from UniProt P01588 28-193) (Fc fusion)”, the EPO-mediated Stat5 Phosphorylation in 293T/EPOR, Elisa was 86%.
With “IME034 (EPO-Fc, R76A) (from UniProt P01588 28-193) (Fc fusion)” the figure was 5%; with “IME015 (EPO-Fc, R76E) (from UniProt P01588 28-193) (Fc fusion)”, 27%; with “IME030 (HSA-HBP, helix B peptide fused to albumin)”, 0%.
With “IME006 (EPO-Fc, N147K) (from UniProt P01588 28-193) (Fc fusion)” the figure was 37%.
